Experimental data from publication PMC9114370 (2022).

Molecular target: T1, TDP-43_(1–102) (human, UniProt Q13148 1-102, fluorescently labelled for MST)
T1 chain: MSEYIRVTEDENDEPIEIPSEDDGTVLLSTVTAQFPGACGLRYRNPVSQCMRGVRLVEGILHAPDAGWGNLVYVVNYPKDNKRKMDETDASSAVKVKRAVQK
Test: MST

- Kd: 1440 nM
B1: HspA5 substrate binding domain (SBD) (domain or fragment)
chain: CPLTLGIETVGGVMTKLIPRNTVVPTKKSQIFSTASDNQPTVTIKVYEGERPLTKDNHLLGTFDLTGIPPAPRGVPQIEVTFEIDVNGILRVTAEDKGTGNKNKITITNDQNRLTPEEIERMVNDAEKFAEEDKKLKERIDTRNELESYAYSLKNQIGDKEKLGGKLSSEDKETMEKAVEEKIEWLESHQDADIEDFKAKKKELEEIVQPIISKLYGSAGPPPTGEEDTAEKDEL
